Data from the supplement of paper PMC10567573.
± gives the standard deviation.

Experiment: protein stability index of a GFP-peptide fusion (GPS, HEK-293T) (PSI 1-6); higher = more stable
Conditions: c terminus: a fixed tail appended
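Further: 24-mer peptide tiles fused after GFP, lentivirally expressed, FACS-sorted into six equal bins by GFP/DsRed ratio, decoded by Illumina sequencing, PSI is the read-weighted mean bin number.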

Sequence | protein stability index (treatment: DMSO) | protein stability index (treatment: MLN4924 1 uM, 8 h)
NMHLNLRPFDCPVCNKKFKMKHHL [ZBTB22] | 2.4 ± 0.2 | 2.81 ± 0.35
QVDPGTDLEPGVLMSAQTITSETT [EPB41L3] | 5.21 ± 0.32 | 5.16 ± 0.13
MSIMGNVLRFLPAFVRMKQLIEEG [GFOD1] | 2.31 ± 0.43 | 2.42 ± 0.28
AGGDATENFEDVGHSTDAREMSKT [CYB5A] | 5.44 ± 0.28 | 5.3 ± 0.15
PGTPPSYSSRTPGTPGTPSYPRTP [MAP2] | 4.72 ± 0.39 | 4.55 ± 0.34
FNGELPNGRHKIPESQFPEFSTSL [SRPK2] | 3.51 ± 0.22 | 3.72 ± 0.32
AGADLKERAKMSSSEVGPFVSKIR [AUH] | 3.21 ± 0.21 | 4.069 ± 0.006
LQHVSEPQAHQESTRGAARPAQAI [SPACA9] | 4.96 ± 0.19 | 5.04 ± 0.098
LPDLCLCRVFWWLGDRDRSRAALV [FBXO39] | 2.5 ± 0.51 | 2.76 ± 0.7
YPALREKSKKYSDVEVPASVTGYS [ADD1] | 4.16 ± 0.2 | 4.28 ± 0.25
FGYLGDRYNRKYLMCGGIAFWSLV [SPNS1] | 3.1 ± 0.51 | 2.75 ± 0.71
GWETRGDRKARKPLVEKKRRARIN [HES6] | 4.31 ± 0.36 | 4.54 ± 0.12
VVIRDIDERAMELLIDFAYTSQIT [KLHL20] | 3.19 ± 0.55 | 2.67 ± 0.57
RLVRVFRIFKLSRHSKGLQILGQT [KCNA1] | 2.65 ± 0.57 | 2.29 ± 0.36
LALGPGESLPHRLSCLGQQQQEPP [PLAGL1] | 4.145 ± 0.038 | 4.23 ± 0.15
SHHSKHKAPSKLGLIISGPILQEG [DLC1] | 3.08 ± 0.2 | 3.28 ± 0.13
RIFKLSRHSKGLQILGQTLKASMR [KCNA1] | 2.54 ± 0.4 | 2.65 ± 0.58
AAHAVVLCALPVHVAVEHQLPPAS [SOAT2] | 2.16 ± 0.32 | 2.52 ± 0.39
ISAEGFTDIDIDTLCAVLERDTLS [BTBD1] | 2.48 ± 0.3 | 2.63 ± 0.38
SQKATRECEKSALTPGFSDNAIML [FAN1] | 3.85 ± 0.22 | 3.98 ± 0.17
CGFTVAQIITSLVFHLPFYSSNQL [OR10K2] | 3.15 ± 0.51 | 2.95 ± 0.41
QAQPAIPRPNRLFLRQLRASHLGN [C2CD2L] | 3.09 ± 0.33 | 3.08 ± 0.27
ERGSMKTHFNTAQGFRTVLELVIN [OAS1] | 2.13 ± 0.43 | 2.5 ± 0.56

Sequence | protein stability index (treatment: DMSO) | protein stability index (treatment: MLN4924 1 uM, 8 h)
QLCEKAPKEATVMCEQCDVFYCDP [TRIM9] | 4.33 ± 0.081 | 4.33 ± 0.25
TYTHGLGLHRRPGAGHCSASPGPA | 3.42 ± 0.24 | 3.48 ± 0.24
LLLVAKMSVGHLRLLSHDQVAMPY [JAGN1] | 3.06 ± 0.46 | 2.81 ± 0.21
LLKTPWRAASAMQFFTKGYQETIS [GCH1] | 2.19 ± 0.28 | 2.44 ± 0.18
ENFQEGKDMSESQDEVPDEVENQF [TAF7L] | 5.58 ± 0.2 | 5.56 ± 0.24
EKIAAEIAQAEEQARKRQEEREKE [SMARCE1] | 5.44 ± 0.17 | 5.74 ± 0.25
VPAGEEEGELGEYRQKLLMFLEIS [VPS39] | 3.39 ± 0.16 | 3.68 ± 0.22
KGPGAPQYPAGTQGEQLEVPERLL [SPSB2] | 4.93 ± 0.15 | 4.72 ± 0.26
DEPYEKVVDRIQSSGKNVTLLVCG [PDZK1] | – | 3.5 ± 0.36
QDIERGVQSEIFLHESYCMDTSHQ [LYSMD4] | 4.24 ± 0.15 | 4.25 ± 0.14
ALERRRRALQEEERAAAQARRELQ [ZBED3] | 5.18 ± 0.12 | 4.86 ± 0.19
VDIVTGHARLSDIWAKTPPITRKA [DHCR7] | 3.26 ± 0.093 | 3.38 ± 0.16
TPMTIPEFFRESVNRFGTYPALAS [ACSBG2] | 2.6 ± 0.41 | 2.78 ± 0.14
EDITKGTQSLPTASASKFPSSGPV [AUP1] | 5.19 ± 0.19 | 5.08 ± 0.1
ERGPYRTRKHAHHCHKRRTRSCSS [CLK3] | 4.42 ± 0.24 | 4.51 ± 0.15
KMETMYPFIVTLEGNALQGPILQK [ZNF449] | 2.53 ± 0.24 | 2.48 ± 0.33
RLKCRSFKWYLENVYPEMRVYNNT [GALNT9] | 2.42 ± 0.17 | 2.19 ± 0.2
SIHYAAAYGHRQCLELVSCFVLFS [ANKRD44] | 2.25 ± 0.44 | 2.2 ± 0.52
KQYDQQFPDGDDEFDSPHEDIVFE [STX11] | 5.18 ± 0.14 | 5.11 ± 0.2
QTESGSEEVSSTVHIETFTTRHGE [C10orf62] | 5.21 ± 0.3 | 5.27 ± 0.34
VTPFDHNIVNLLTTCSTPLLNSPP [AUP1] | 2.42 ± 0.12 | 2.48 ± 0.39
ILKRRSDEALERCQILELLNAELE [CCDC89] | 2.68 ± 0.34 | 3 ± 0.42
PKTPMDGADCGIQWWNAVFIMLLI [LYSMD4] | 2.5 ± 0.62 | 2.39 ± 0.41

Sequence | protein stability index (treatment: DMSO) | protein stability index (treatment: MLN4924 1 uM, 8 h)
PSTTPPAHSSSNTIRSGISPNLNV [SASS6] | 4.29 ± 0.33 | 4.44 ± 0.28
WRLLNPGEYVVTAKAEGFTASTKN [CPXM2] | 3.09 ± 0.43 | 3.03 ± 0.29
GYRCFVCPVEYNNDTNSFTVDCEP [CDS2] | 2.35 ± 0.47 | 2.58 ± 0.51
DNAVKNHWNSTIKRKVDTGGFLSE [MYBL2] | 3.87 ± 0.2 | 3.71 ± 0.14
VAGTMESPFSPGLFHRLDEDWDSA [ATF6] | 4.38 ± 0.11 | 4.32 ± 0.2
ACDSKLTFDAITTIRGEVMFFKDR [MMP1] | 2.45 ± 0.24 | 2.83 ± 0.19
PQEAVLQQLHQLPRGRLDLATQSL [LRRC45] | 3.75 ± 0.15 | 3.74 ± 0.21
DVCSFPNALVTKLLLDCGAEVNAV [FEM1B] | 2.48 ± 0.83 | 2.44 ± 0.48
KEDAKGKSEEELAECFRIFDRNAD [TNNC2] | 5.54 ± 0.24 | 5.71 ± 0.12
SVSKAQSIYGIPHSTLEYKVKERL [LCOR] | 3.42 ± 0.43 | 3.54 ± 0.13
NEKIYELRVMETKPDKAVSIIECD [UFD1] | 4.33 ± 0.11 | 4.28 ± 0.16
RVKLISNKGTETDNDPSCVHPIIK [PHTF1] | 3.58 ± 0.16 | 3.83 ± 0.35
QLNRRGEFIQEIRRQLEACQRERA [OAS1] | 4.09 ± 0.19 | 3.79 ± 0.075
KLSPLRLSVSNNQEPDFIDDIEEK [KMT2E] | 4.9 ± 0.24 | 5.06 ± 0.12
MADGNEDLRADDLPGPAFESYESM [KLHDC2] | 5.41 ± 0.23 | 5.26 ± 0.26
EIFAIDLRCGNQGKGWKATRLFHD [DCAF4] | 2.24 ± 0.44 | 2.12 ± 0.22
PENLLLASKCKGAAVKLADFGLAI [CAMK2B] | 2.33 ± 0.31 | 2.56 ± 0.44
AQVDGAAMFAADPKKPIGGNIIAH [RAD51] | 4.23 ± 0.18 | 4.36 ± 0.17
RNLEDIHMSLEKDIAAMTNSLFID [TEKT4] | 3.29 ± 0.33 | 3.33 ± 0.27
HDPLWRRHCKKYWLISEEEKTQKN [FBXO3] | 3.56 ± 0.45 | 3.99 ± 0.34
GPFGGFFASGFKRAFKIKDFANTI [CDS1] | 2.38 ± 0.31 | 2.44 ± 1
YFITLGTDLAQQQGGGNGQQQQAM [KCNA4] | 3.04 ± 0.18 | 2.95 ± 0.67
IYGMEGIPEKDMDERRRLLEQKTQ [ZNF207] | 4.6 ± 0.17 | 4.69 ± 0.15

Sequence | protein stability index (treatment: DMSO) | protein stability index (treatment: MLN4924 1 uM, 8 h)
EDQYEENSHLTSVPHWINSNTLGF [ETS2] | 3.2 ± 0.34 | 3.13 ± 0.3
CREPSPKMDFKTNILLKNLVTIAR [TRIM43] | 2.8 ± 0.59 | 2.35 ± 0.49
LPPKVGSFQLFVEGYKDADYWLRR [PI4K2A] | 2.41 ± 0.34 | 2.46 ± 0.17
SPLHAAAEAGHVDICHMLVQFCRL [EHMT1] | 2.25 ± 0.069 | 2.5 ± 0.37
VGRTEPELLVAHAYTRYLGDLSGG [HMOX1] | 2.68 ± 0.16 | 2.48 ± 0.08
NEDEDLGPCEGPSKEDKDLDSSEG [SPANXN3] | 5.66 ± 0.21 | 5.54 ± 0.17
DSLAKEIQYLKDLIEEVRKARGKK [ATF4] | 2.25 ± 0.31 | 2.14 ± 0.44
GPGAHILRRKSPASGQGPMCNVKA [ADAMTS4] | 4.05 ± 0.34 | 3.76 ± 0.36
FTRPNEKGEYEVAEGIGSTVFRAI [BTBD10] | 3.18 ± 0.42 | 3.46 ± 0.38
STSFRVYIMAFDIKSEDMLKILKP [FBXO33] | 2.14 ± 0.59 | 3.02 ± 0.51
TLMEEVLLLGLKDREGYTSFWNDC [GOLPH3] | 2.71 ± 0.58 | 2.72 ± 0.69
EQLQGFNTRVRELAQAAGFAPQTG [DNAAF3] | 3.66 ± 0.28 | 3.91 ± 0.67
RNLHSHYHEAPMTRKHYQVTGYGI [POMT2] | 2.35 ± 0.15 | 2.46 ± 0.23
EDRLSLKFLPSSEEDNDDAKILPS [DRICH1] | 5.34 ± 0.23 | 5.33 ± 0.11
RLNLTNTKQNFFSQTPILQALQHV [INTS3] | 2.23 ± 0.092 | 2.5 ± 0.17
LDVFGRGDNISDVSKFLEDDKWME [LUC7L3] | 4.72 ± 0.27 | 4.37 ± 0.14
AVLDCLLDFLPKDVKKEKLSPDIM [TENT5D] | 2.99 ± 0.65 | 2.63 ± 0.52
PTQGPETPRSPEGTTEAATQDGKE [PXN] | 5.62 ± 0.19 | 5.48 ± 0.22
EDSYRKQVEVDAQQCMLEILDTAG [RAP1B] | 4.62 ± 0.13 | 4.5 ± 0.14
SRESSKPRAVLKPRRVCVGGKRRR [PPP2R2C] | 4.94 ± 0.33 | 4.87 ± 0.19
PESLNSPVSGKAVFMEFGPPNQQM [DLX1] | 3.79 ± 0.33 | 3.92 ± 0.26
